Data from patent publication US7901902B2, “Methods and compositions for identifying a cellular immune response against prostate cancer” (BioSante Pharmaceuticals, Inc., priority 2006, dated 2011).

target: HLA-A2 (Homo sapiens, UniProt P04439, D140Y/D185E/D98H/E176V/E277Q/G131W/G231S/I119V/I121R/I166T/I218V/L300P/L318F/N151K/N90K/P208A/P217A/Q86G/Q94H/R138H/R169H/T345S); experiment: HLA-A2 peptide binding assay on T2 cells (fluorescence index, flow cytometry); conditions: summary of Tables 2 and 3

Sequence | upregulation of HLA-A2 expression (in words)
LILGLVWTL (Filamin-B peptides) [Filamin B peptide # 1, 9-mer peptide selected from the filamin-B polypeptide] | greatest upregulation
GLAPLEVRV (Filamin-B peptides) [Filamin B peptide # 3, 9-mer peptide selected from the filamin-B polypeptide] | greatest upregulation
GQGDVMVFV (Filamin-B peptides) [Filamin B peptide # 6, 9-mer peptide selected from the filamin-B polypeptide] | moderate upregulation
KLILGLVWT (Filamin-B peptides) [Filamin B peptide # 7, 9-mer peptide selected from the filamin-B polypeptide] | upregulated HLA-A2 weakly
GLVEPVNMV (Filamin-B peptides) [Filamin B peptide # 2, 9-mer peptide selected from the filamin-B polypeptide] | moderate upregulation
SLQESGLKV (Filamin-B peptides) [Filamin B peptide # 4, 9-mer peptide selected from the filamin-B polypeptide] | moderate upregulation
RLIALLEVL (Filamin-B peptides) [Filamin B peptide # 5, 9-mer peptide selected from the filamin-B polypeptide] | greatest upregulation
